Data on eleven molecules can be found in patent publication US11702666B2, “Cell-based assay for determining activity in the retinoblastoma pathway” (Medical Diagnostic Laboratories, LLC, priority 2017, dated 2023).

This assay relates to Rb/E2F1-Dp-1 complex. In words: CDK4 mutant activity / drug resistance in NanoBiT assay, stable cell line #11. The assay is classed as cell-based, human. To be noted: for luciferase signal compared to WT CDK4 (in words): no drug; for Observed drug resist.: Palbociclib/Ribociclib, KD = kinase dead. On the procedure:
A linear expression cassette of mutated CDK4 or CDK6 was generated by PCR mediated overlapping extension method. A pair of forward and reverse primers containing the targeted mutations was designed. The mutated codon was located in the middle of a primer flanked by 18-21 nucleotides on each side. Two PCRs (named as PCR #1 and PCR #2 in FIG. 1) were performed using UF-CMV forward and mutated reverse primers, or mutated forward and BGH-UR primers. The PCR products were cleaned up by ExoSAP-IT® (Affymetrix) to remove unconsumed dNTPs and primers. The treated PCR products were mixed together followed by dilution with water. A second round of PCR was performed using the diluted PCR mixture, and the UF and UR primers (FIG. 1). The amplified products were gel-purified. The DNA concentration was quantitated by the optical density at 260 nm using Nanodrop. The targeted mutations were incorporated in the CDK4 or CDK6 genes during the PCR mediated overlapping extension method. The introduced mutations were confirmed by the DNA sequencing.
To examine the ability of the assay to detect variants in CDK4 or CDK6 that affect function, kinase dead mutants and COSMIC (Catalogue Of Somatic Mutations in cancer) unknown mutants were created. For comparison, hyperactive CDK4 or CDK6 mutants known to be hyperactive due to less binding to natural inhibitor p16 were also created. The mutations in CDK4 or CDK6 were created by site-directed mutagenesis. WT or mutated CDK4 or CDK6 along with the CyclinD1 and SB-Rb were co-transfected, under similar conditions as previously indicated (see FIG. 9).
To examine the specificity of the assay, particular CDK4 kinase dead mutants were created. Modifications to D158 were made by changing aspartate to nonpolar alanine (D158A) or positively charged arginine (D158R). […] The mutations in CDK4 were created by site-directed mutagenesis. WT or mutated CDK4 along with the CyclinD1 and SB-Rb was co-transfected into the #11 cell line, under the same conditions as previously indicated. […] Kinase dead mutants have the high signal due to inability to phosphorylate Rb.
Computer modeling was used to reveal the drug-binding pocket and predict drug-resistant mutants. The mutations in CDK4 and CDK6 were created by site-directed mutagenesis. WT or mutated CDK4 or CDK6 along with the CyclinD1 and SB-Rb was co-transfected into #11 cell line, under the same conditions as previously indicated. […] Dose response curves are presented on FIG. 13A and FIG. 13B. Activity of other mutants was very similar to the WT or KD.
CDK4 and CDK6 mutants with known function and unknown function taken from the COSMIC database were analyzed in the present assay and are summarized in Table 7A and Table 7B. The mutants were classified according to their activity. Table 7A and Table 7B also show the number of counts per mutant in the COSMIC database, type of cancer, and luciferase activity compared to the WT (being 100%).

The mark [1] stands for this setting: predicted drug resistant CDK4 mutants, relative to WT.
The mark [2] stands for this setting: predicted drug resistant CDK4 mutants.

“Also recorded” adds a separate entry of the source.

B1: CDK4 R24C: hyperactive CDK4 mutant, COSMIC database (protein, UniProt P11802 2-303, looked up, variant R24C)
Cyclin-dependent kinase 4: ATSRYEPVAEIGVGAYGTVYKACDPHSGHFVALKSVRVPNGGGGGGGLPISTVREVALLRRLEAFEHPNVVRLMDVCATSRTDREIKVTLVFEHVDQDLRTYLDKAPPPGLPAETIKDLMRQFLRGLDFLHANCIVHRDLKPENILVTSGGTVKLADFGLARIYSYQMALTPVVVTLWYRAPEVLLQSTYATPVDMWSVGCIFAEMFRRKPLFCGNSEADQLGKIFDLIGLPPEDDWPRDVSLPRGAFPPRGPRPVQSVVPEMEESGAQLLLEMLTFNPHKRISAFRALQHSYLHKDEGNPE
As for B1, the “Luc. activity (/wt)” value (CDK4 mutants, compared to the WT (being 100%)) is 91%. In addition, the “luciferase signal compared to WT CDK4 (in words)” value (CDK4 mutants) is given as “a little bit lower basal signal than WT”.

B2: CDK4 A157S: predicted drug resistant CDK4 mutant (protein, UniProt P11802 2-303, looked up, variant A157S)
Cyclin-dependent kinase 4: ATSRYEPVAEIGVGAYGTVYKARDPHSGHFVALKSVRVPNGGGGGGGLPISTVREVALLRRLEAFEHPNVVRLMDVCATSRTDREIKVTLVFEHVDQDLRTYLDKAPPPGLPAETIKDLMRQFLRGLDFLHANCIVHRDLKPENILVTSGGTVKLSDFGLARIYSYQMALTPVVVTLWYRAPEVLLQSTYATPVDMWSVGCIFAEMFRRKPLFCGNSEADQLGKIFDLIGLPPEDDWPRDVSLPRGAFPPRGPRPVQSVVPEMEESGAQLLLEMLTFNPHKRISAFRALQHSYLHKDEGNPE
With B2, the Luc. activity (/wt) under setting [1] is 195%.

B3: CDK4 F931 T102K: CDK4 double mutant F93I and T102K (protein, UniProt P11802 2-303, looked up, variant F93I T102K)
Cyclin-dependent kinase 4: ATSRYEPVAEIGVGAYGTVYKARDPHSGHFVALKSVRVPNGGGGGGGLPISTVREVALLRRLEAFEHPNVVRLMDVCATSRTDREIKVTLVIEHVDQDLRKYLDKAPPPGLPAETIKDLMRQFLRGLDFLHANCIVHRDLKPENILVTSGGTVKLADFGLARIYSYQMALTPVVVTLWYRAPEVLLQSTYATPVDMWSVGCIFAEMFRRKPLFCGNSEADQLGKIFDLIGLPPEDDWPRDVSLPRGAFPPRGPRPVQSVVPEMEESGAQLLLEMLTFNPHKRISAFRALQHSYLHKDEGNPE
In the case of B3, the Luc. activity (/wt) under setting [1] was 152%. Besides, the Observed drug resist. entry under setting [2] is listed as “Resistant”.

B4: CDK4 D158D: CDK4 control with one nucleotide substitution that did not change the amino acid (protein, UniProt P11802 2-303, looked up)
Cyclin-dependent kinase 4: ATSRYEPVAEIGVGAYGTVYKARDPHSGHFVALKSVRVPNGGGGGGGLPISTVREVALLRRLEAFEHPNVVRLMDVCATSRTDREIKVTLVFEHVDQDLRTYLDKAPPPGLPAETIKDLMRQFLRGLDFLHANCIVHRDLKPENILVTSGGTVKLADFGLARIYSYQMALTPVVVTLWYRAPEVLLQSTYATPVDMWSVGCIFAEMFRRKPLFCGNSEADQLGKIFDLIGLPPEDDWPRDVSLPRGAFPPRGPRPVQSVVPEMEESGAQLLLEMLTFNPHKRISAFRALQHSYLHKDEGNPE
modifications: silent D158D nucleotide variant
With B4, the “luciferase signal compared to WT CDK4 (in words)” value (CDK4 mutants) is listed as “the same activity as a WT”.

B5: CDK4 F93I: predicted drug resistant CDK4 mutant (protein, UniProt P11802 2-303, looked up, variant F93I)
Cyclin-dependent kinase 4: ATSRYEPVAEIGVGAYGTVYKARDPHSGHFVALKSVRVPNGGGGGGGLPISTVREVALLRRLEAFEHPNVVRLMDVCATSRTDREIKVTLVIEHVDQDLRTYLDKAPPPGLPAETIKDLMRQFLRGLDFLHANCIVHRDLKPENILVTSGGTVKLADFGLARIYSYQMALTPVVVTLWYRAPEVLLQSTYATPVDMWSVGCIFAEMFRRKPLFCGNSEADQLGKIFDLIGLPPEDDWPRDVSLPRGAFPPRGPRPVQSVVPEMEESGAQLLLEMLTFNPHKRISAFRALQHSYLHKDEGNPE
In the case of B5, the Luc. activity (/wt) under setting [1] was 157%. The Observed drug resist. result under setting [2] is “showed drug resistance; also recorded: Resistant”.

B6: CDK4 G18A: predicted drug resistant CDK4 mutant (protein, UniProt P11802 2-303, looked up, variant G18A)
Cyclin-dependent kinase 4: ATSRYEPVAEIGVGAYATVYKARDPHSGHFVALKSVRVPNGGGGGGGLPISTVREVALLRRLEAFEHPNVVRLMDVCATSRTDREIKVTLVFEHVDQDLRTYLDKAPPPGLPAETIKDLMRQFLRGLDFLHANCIVHRDLKPENILVTSGGTVKLADFGLARIYSYQMALTPVVVTLWYRAPEVLLQSTYATPVDMWSVGCIFAEMFRRKPLFCGNSEADQLGKIFDLIGLPPEDDWPRDVSLPRGAFPPRGPRPVQSVVPEMEESGAQLLLEMLTFNPHKRISAFRALQHSYLHKDEGNPE
For B6, the Luc. activity (/wt) under setting [1] is 97.5%.

B7: CDK4 A33S: predicted drug resistant CDK4 mutant (protein, UniProt P11802 2-303, looked up, variant A33S)
Cyclin-dependent kinase 4: ATSRYEPVAEIGVGAYGTVYKARDPHSGHFVSLKSVRVPNGGGGGGGLPISTVREVALLRRLEAFEHPNVVRLMDVCATSRTDREIKVTLVFEHVDQDLRTYLDKAPPPGLPAETIKDLMRQFLRGLDFLHANCIVHRDLKPENILVTSGGTVKLADFGLARIYSYQMALTPVVVTLWYRAPEVLLQSTYATPVDMWSVGCIFAEMFRRKPLFCGNSEADQLGKIFDLIGLPPEDDWPRDVSLPRGAFPPRGPRPVQSVVPEMEESGAQLLLEMLTFNPHKRISAFRALQHSYLHKDEGNPE
Turning to B7, the Luc. activity (/wt) under setting [1] was 182%.

B8: CDK4 T102K: predicted drug resistant CDK4 mutant (protein, UniProt P11802 2-303, looked up, variant T102K)
Cyclin-dependent kinase 4: ATSRYEPVAEIGVGAYGTVYKARDPHSGHFVALKSVRVPNGGGGGGGLPISTVREVALLRRLEAFEHPNVVRLMDVCATSRTDREIKVTLVFEHVDQDLRKYLDKAPPPGLPAETIKDLMRQFLRGLDFLHANCIVHRDLKPENILVTSGGTVKLADFGLARIYSYQMALTPVVVTLWYRAPEVLLQSTYATPVDMWSVGCIFAEMFRRKPLFCGNSEADQLGKIFDLIGLPPEDDWPRDVSLPRGAFPPRGPRPVQSVVPEMEESGAQLLLEMLTFNPHKRISAFRALQHSYLHKDEGNPE
On to B8, for which the Luc. activity (/wt) under setting [1] is 162%. Further, the Observed drug resist. entry under setting [2] is “showed drug resistance; also recorded: Resistant”.

B9: CDK4 I12L: predicted drug resistant CDK4 mutant (protein, UniProt P11802 2-303, looked up, variant I12L)
Cyclin-dependent kinase 4: ATSRYEPVAELGVGAYGTVYKARDPHSGHFVALKSVRVPNGGGGGGGLPISTVREVALLRRLEAFEHPNVVRLMDVCATSRTDREIKVTLVFEHVDQDLRTYLDKAPPPGLPAETIKDLMRQFLRGLDFLHANCIVHRDLKPENILVTSGGTVKLADFGLARIYSYQMALTPVVVTLWYRAPEVLLQSTYATPVDMWSVGCIFAEMFRRKPLFCGNSEADQLGKIFDLIGLPPEDDWPRDVSLPRGAFPPRGPRPVQSVVPEMEESGAQLLLEMLTFNPHKRISAFRALQHSYLHKDEGNPE
For the molecule B9, the Luc. activity (/wt) under setting [1] is 126%.

B10: CDK4 T102R: predicted drug resistant CDK4 mutant (protein, UniProt P11802 2-303, looked up, variant T102R)
Cyclin-dependent kinase 4: ATSRYEPVAEIGVGAYGTVYKARDPHSGHFVALKSVRVPNGGGGGGGLPISTVREVALLRRLEAFEHPNVVRLMDVCATSRTDREIKVTLVFEHVDQDLRRYLDKAPPPGLPAETIKDLMRQFLRGLDFLHANCIVHRDLKPENILVTSGGTVKLADFGLARIYSYQMALTPVVVTLWYRAPEVLLQSTYATPVDMWSVGCIFAEMFRRKPLFCGNSEADQLGKIFDLIGLPPEDDWPRDVSLPRGAFPPRGPRPVQSVVPEMEESGAQLLLEMLTFNPHKRISAFRALQHSYLHKDEGNPE
For B10, the Luc. activity (/wt) under setting [1] was 156%.

B11: CDK4 L49R: predicted drug resistant CDK4 mutant (protein, UniProt P11802 2-303, looked up, variant L49R)
Cyclin-dependent kinase 4: ATSRYEPVAEIGVGAYGTVYKARDPHSGHFVALKSVRVPNGGGGGGGRPISTVREVALLRRLEAFEHPNVVRLMDVCATSRTDREIKVTLVFEHVDQDLRTYLDKAPPPGLPAETIKDLMRQFLRGLDFLHANCIVHRDLKPENILVTSGGTVKLADFGLARIYSYQMALTPVVVTLWYRAPEVLLQSTYATPVDMWSVGCIFAEMFRRKPLFCGNSEADQLGKIFDLIGLPPEDDWPRDVSLPRGAFPPRGPRPVQSVVPEMEESGAQLLLEMLTFNPHKRISAFRALQHSYLHKDEGNPE
Regarding B11, the Luc. activity (/wt) under setting [1] was 281%.
